Measurements reported in patent US12419964B2, “Antibody drug conjugate (ADC) targeting Nectin 4 and comprising an exatecan payload” (ELI LILLY AND COMPANY, priority 2023, dated 2025).

T1: Nectin-4 (Homo sapiens, UniProt Q96NY8)
T1 construct: endogenous in cells
T1 sequence (Q96NY8 32-510): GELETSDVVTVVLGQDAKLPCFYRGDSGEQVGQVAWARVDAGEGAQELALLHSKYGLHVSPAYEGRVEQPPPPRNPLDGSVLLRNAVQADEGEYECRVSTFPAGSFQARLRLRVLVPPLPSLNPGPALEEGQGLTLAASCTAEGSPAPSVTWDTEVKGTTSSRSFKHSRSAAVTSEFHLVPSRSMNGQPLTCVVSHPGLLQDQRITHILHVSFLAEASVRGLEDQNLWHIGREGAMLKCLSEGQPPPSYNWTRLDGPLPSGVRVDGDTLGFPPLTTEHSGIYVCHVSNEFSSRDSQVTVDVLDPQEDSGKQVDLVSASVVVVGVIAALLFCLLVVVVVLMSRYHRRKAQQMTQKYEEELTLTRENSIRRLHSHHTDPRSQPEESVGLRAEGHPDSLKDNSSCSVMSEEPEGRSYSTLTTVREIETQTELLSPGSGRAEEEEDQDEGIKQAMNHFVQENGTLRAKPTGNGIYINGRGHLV

B1: 15A7.5: anti-Nectin-4 monoclonal antibody described in WO2022/207822 and WO2022/207825 (antibody)
heavy: EVQLVESGGGLVQPGGSLRLSCAASGFTFSNYGMAWVRQAPGKGLEWVSFISNLAYGINYADTVTGRFTISRDNAKNSLYLQMNSLRAEDTAVYYCARGARATGWFAYWGQGTLVTVSSASTKGPSVFPLAPSSKSTSGGTAALGCLVKDYFPEPVTVSWNSGALTSGVHTFPAVLQSSGLYSLSSVVTVPSSSLGTQTYICNVNHKPSNTKVDKRVEPKSCDKTHTCPPCPAPEFEGGPSVFLFPPKPKDTLMISRTPEVTCVVVDVSHEDPEVKFNWYVDGVEVHNAKTKPREEQYNSTYRVVSVLTVLHQDWLNGKEYKCKVSNKALPASIEKTISKAKGQPREPQVYTLPPSREEMTKNQVSLTCLVKGFYPSDIAVEWESNGQPENNYKTTPPVLDSDGSFFLYSKLTVDKSRWQQGNVFSCSVMHEALHNHYTQKSLSLSPGK
light: DIQMTQSPSSLSASVGDRVTITCKASQNVDTHVAWYQQKPGKAPKALIYSASYRYSGVPSRFSGSGSGTDFTLTISSLQPEDFATYYCQQYNSYPLTFGGGTKVEIKRTVAAPSVFIFPPSDEQLKSGTASVVCLLNNFYPREAKVQWKVDNALQSGNSQESVTEQDSKDSTYSLSSTLTLSKADYEKHKVYACEVTHQGLSSPVTKSFNRGEC
B2: ETx-22: ADC of H1L2_15A7.5 anti-Nectin-4 mAb (HC SEQ ID NO:5, LC SEQ ID NO:6) conjugated via cysteines to exatecan Linker-Payload of Formula (L-P′) (conjugate)
heavy: B1 heavy
light: B1 light
modifications: exatecan linker-payload conjugated via cysteines

Experiments:
Nectin-4 = target: T1, Nectin-4; details: described in WO2022/207822 and WO2022/207825; cited from earlier work
[1] = Hydrophobic interaction chromatography (HIC) versus naked 15A7.5 mAb; format: physicochemical; details: compared with naked 15A7.5 mAb (FIG. 2)
Description: As determined by SEC-HPLC, less than 5% material was aggregated. […] (See FIG. 2 and corresponding Brief Description). […] (See FIG. 3 and corresponding Brief Description). In vitro cytotoxic activity was assessed for the HCT-116-2G10 clone expressing human nectin-4. (See FIG. 4 and corresponding Brief Description).

| Molecule | selectivity of affinity, tumor cells versus keratinocytes (Nectin-4) | hydrophilicity by HIC profile [1] |
| --- | --- | --- |
| B1 | selective affinity for tumor cells versus keratinocytes | – |
| B2 | – | high homogenous hydrophilicity |
